Assay results: patent publication US20260028391A1

Key:
Assay in all cases: FACS, % binding to RSV F A variants
[1] = target: RSV F A S433P (RSV A, strain A2) (UniProt P03420)
[2] = target: RSV F A N208Y-N671I (RSV A, strain A2) (UniProt P03420)
[3] = target: RSV F A S433P-G446E (RSV A, strain A2) (UniProt P03420)

B1: MPK65-v2-v1.2 (antibody, V domains shown)
VH: QVPLVQSGAEVKKPGESLKISCKGSGYSFINYWIGWVRQMPGKGLEWMGVIYPFDSDTKYSPSFQGHVTISADKSSNTAYVQWSSLKASDTAMYYCARFTFGIAVVTDDVSGEGQAFEIWGQGTMVTVSS
VL: QIVMMQSPATLSVSPGERATLSCRASQSVAGNLAWYQQRPGQAPRLLIYGASTRATGVPARFSGSGSETEFTLTISSLQSEDFAVYYCHQYSNLPQAFGQGTRLDIK
% binding [1]: 31.7% | % binding [2]: 0.38% | % binding [3]: 32.9%
